Results taken from patent US20230036060A1 (University of California, published 2023).

T1: NLS-pMag-CreC
T1 chain: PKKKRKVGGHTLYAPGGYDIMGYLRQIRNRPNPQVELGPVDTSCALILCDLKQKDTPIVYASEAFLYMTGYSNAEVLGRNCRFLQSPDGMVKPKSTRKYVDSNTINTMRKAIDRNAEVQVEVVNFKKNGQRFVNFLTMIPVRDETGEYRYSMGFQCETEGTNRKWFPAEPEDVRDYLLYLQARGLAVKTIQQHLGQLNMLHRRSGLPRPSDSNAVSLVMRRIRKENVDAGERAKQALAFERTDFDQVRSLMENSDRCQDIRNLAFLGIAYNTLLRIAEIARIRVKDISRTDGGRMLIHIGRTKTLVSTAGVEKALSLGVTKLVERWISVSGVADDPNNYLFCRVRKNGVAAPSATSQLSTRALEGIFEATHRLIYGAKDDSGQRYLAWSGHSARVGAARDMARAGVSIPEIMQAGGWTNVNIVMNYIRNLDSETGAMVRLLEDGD

B1: myc-α-CD38-Receptor (receptor)
chain: SEQKLISEEDLDIQLTQSSSSFSVSLGDRVTITCKASEDIYNRLAWYQQKPGNAPRLLISGATSLETGVPSRFSGSGSGKDYTLSITSLQTEDVATYYCQQYWSTPTFGGGTKLEIKRADAAPTVSIFPPSGGGGSGGGGSGGGGSGGGGSQVQLKQSGPSLVQPSQRLSITCTVSGFSLISYGVHWVRQSPGKGLEWLGVIWRGGSTDYNAAFMSRLSITKDNSKSQVFFKMNSLQADDTAIYFCAKTLITTGYAMDYWGQGTSVTVSSAAAIEVMYPPPYLDNEKSNGTIIHVKGKHLCPSPLFPGPSKPFWVLVVVGGVLACYSLLVTVAFIIFWVRSKRS
notes: Non-signalling anchoring receptor with myc tag, expressed on Jurkat T cells; also called c-myc-tagged α-CD38 Receptor
B2: ERT2-CreN-nMag (other)
chain: MAGDMRAANLWPSPLMIKRSKKNSLALSLTADQMVSALLDAEPPILYSEYDPTRPFSEASMMGLLTNLADRELVHMINWAKRVPGFVDLTLHDQVHLLECAWLEILMIGLVWRSMEHPVKLLFAPNLLLDRNQGKCVEGMVEIFDMLLATSSRFRMMNLQGEEFVCLKSIILLNSGVYTFLSSTLKSLEEKDHIHRVLDKITDTLIHLMAKAGLTLQQQHQRLAQLLLILSHIRHMSNKGMEHLYSMKCKNVVPLYDLLLEAADAHRLHAPTSRGGASVEETDQSHLATAGSTSSHSLQKYYITGEAEGFPATAVDNLLTVHQNLPALPVDATSDEVRKNLMDMFRDRQAFSEHTWKMLLSVCRSWAAWCKLNGTHTLYAPGGYDIMGYLDQIGNRPNPQVELGPVDTSCALILCDLKQKDTPIVYASEAFLYMTGYSNAEVLGRNCRFLQSPDGMVKPKSTRKYVDSNTINTMRKAIDRNAEVQVEVVNFKKNGQRFVNFLTMIPVRDETGEYRYSMGFQCETE

Experiments:
[1] = target: T2, CD38 on CD38+ Toledo Target cells (UniProt P28907 1-300, limits assumed); test: flow cytometry, Jurkat T cells carrying the receptor with Toledo Target cells
T2 construct: whole, on cells

[2] = target: T1, NLS-pMag-CreC; test: cell-based or functional assay

Binder	binding result [1]	fold increase in recombined TamPA-Cre+ CAR Reporter Jurkat T cells, Light+4-OHT against Dark+4-OHT [2] [fold]
B1	binds	–
B2	–	27.1
